Reference: patent publication US20140087995A1 (published 2014)
Numbered stars: 1 amine (or outer) side, 2 acyl side, 3 side chain; on linkers, the order of the positions; unused ones are H or OH. Bridge positions count the residues as written; N and C are the ends. Side chains are listed from the residue outwards. Ends that are not written are not given here. * marks the point of attachment. C20 diacid = O=C(O)CCCCCCCCCCCCCCCCCCC(=O)*; γGlu = O=C(O)[C@H](CCC(=O)[*:2])N[*:1]

T1: human calcitonin receptor (human, UniProt P30988 25-474)
T1 construct: whole, on cells; Assayed as cell membranes of BHK tk'ts 13 cells stably transfected with the human calcitonin receptor (Assay VII); also called hCTR; hCT
T1 sequence (looked up): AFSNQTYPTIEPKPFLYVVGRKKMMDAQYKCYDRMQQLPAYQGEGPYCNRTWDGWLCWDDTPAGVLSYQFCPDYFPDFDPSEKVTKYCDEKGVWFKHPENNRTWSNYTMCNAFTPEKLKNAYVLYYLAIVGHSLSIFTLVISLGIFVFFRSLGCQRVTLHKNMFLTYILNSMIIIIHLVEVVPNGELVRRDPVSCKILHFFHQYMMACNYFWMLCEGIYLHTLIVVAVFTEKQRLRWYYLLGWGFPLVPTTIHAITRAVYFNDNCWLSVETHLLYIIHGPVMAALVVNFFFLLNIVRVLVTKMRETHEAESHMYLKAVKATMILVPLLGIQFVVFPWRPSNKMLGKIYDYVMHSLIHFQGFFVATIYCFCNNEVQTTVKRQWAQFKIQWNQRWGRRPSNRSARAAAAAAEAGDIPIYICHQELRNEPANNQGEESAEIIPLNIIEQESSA


Experiments:
[1] = target: T1, human calcitonin receptor; test: SPA competition vs 125I-calcitonin, membranes of BHK cells with human calcitonin receptor (Assay VII)
In short: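 BHK hCTR membranes 35 ng/μL + SPA beads 0.05 mg/well; buffer 50 mM Hepes pH 7.4, 1 mM CaCl2, 5 mM MgCl₂, 0.1% OA, 0.02% Tween20. 120 min, 25° C., shaking. Scintillation count; IC50 by one-site binding competition.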

[2] = target: T1, human calcitonin receptor; test: IC50 at hCTR divided by IC50 at hAmylin-R (SPA competition assays V and VII)
In short: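 Competition binding by SPA with cell membranes (35 ng/μL) and SPA beads in 50 mM Hepes pH 7.4 with 1 mM CaCl2, 5 mM MgCl2, 0.1% OA and 0.02% Tween20. Incubated 120 min at 25 °C with shaking, then counted.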

| Binder | IC50 [1] [nM] | Ratio hCT/hAmylin binding [2] |
| --- | --- | --- |
| K([γGlu-C20 diacid])CNTATCATQRLARFLRHSSPNFGAIPSSTNVGSNTY-NH2 (disulfide 2-7; N-terminus assumed; SMILES CC[C@H](C)[C@H](NC(=O)[C@H](C)NC(=O)CNC(=O)[C@H](Cc1ccccc1)NC(=O)[C@H](CC(N)=O)NC(=O)[C@@H]1CCCN1C(=O)[C@H](CO)NC(=O)[C@H](CO)NC(=O)[C@H](Cc1c[nH]cn1)NC(=O)[C@H](CCCNC(=N)N)NC(=O)[C@H](CC(C)C)NC(=O)[C@H](Cc1ccccc1)NC(=O)[C@H](CCCNC(=N)N)NC(=O)[C@H](C)NC(=O)[C@H](CC(C)C)NC(=O)[C@H](CCCNC(=N)N)NC(=O)[C@H](CCC(N)=O)NC(=O)[C@@H](NC(=O)[C@H](C)NC(=O)[C@@H]1CSSC[C@H](NC(=O)[C@@H](N)CCCCNC(=O)CC[C@H](NC(=O)CCCCCCCCCCCCCCCCCCC(=O)O)C(=O)O)C(=O)N[C@@H](CC(N)=O)C(=O)N[C@@H]([C@@H](C)O)C(=O)N[C@@H](C)C(=O)N[C@@H]([C@@H](C)O)C(=O)N1)[C@@H](C)O)C(=O)N1CCC[C@H]1C(=O)N[C@@H](CO)C(=O)N[C@@H](CO)C(=O)N[C@H](C(=O)N[C@@H](CC(N)=O)C(=O)N[C@H](C(=O)NCC(=O)N[C@@H](CO)C(=O)N[C@@H](CC(N)=O)C(=O)N[C@H](C(=O)N[C@@H](Cc1ccc(O)cc1)C(N)=O)[C@@H](C)O)C(C)C)[C@@H](C)O, also called compound 83) [N^ε1-[(4S)-4-carboxy-4-(19-carboxynonadecanoylamino)butanoyl]-[Arg14,Arg17,Pro21,Pro27]-h-amylin] | 137 | 146 |
| K([γGlu-C20 diacid])CNTATCATQRLANFLRHSSPNFGAIPSSTNVGRNTY-NH2 (disulfide 2-7; N-terminus assumed; SMILES CC[C@H](C)[C@H](NC(=O)[C@H](C)NC(=O)CNC(=O)[C@H](Cc1ccccc1)NC(=O)[C@H](CC(N)=O)NC(=O)[C@@H]1CCCN1C(=O)[C@H](CO)NC(=O)[C@H](CO)NC(=O)[C@H](Cc1c[nH]cn1)NC(=O)[C@H](CCCNC(=N)N)NC(=O)[C@H](CC(C)C)NC(=O)[C@H](Cc1ccccc1)NC(=O)[C@H](CC(N)=O)NC(=O)[C@H](C)NC(=O)[C@H](CC(C)C)NC(=O)[C@H](CCCNC(=N)N)NC(=O)[C@H](CCC(N)=O)NC(=O)[C@@H](NC(=O)[C@H](C)NC(=O)[C@@H]1CSSC[C@H](NC(=O)[C@@H](N)CCCCNC(=O)CC[C@H](NC(=O)CCCCCCCCCCCCCCCCCCC(=O)O)C(=O)O)C(=O)N[C@@H](CC(N)=O)C(=O)N[C@@H]([C@@H](C)O)C(=O)N[C@@H](C)C(=O)N[C@@H]([C@@H](C)O)C(=O)N1)[C@@H](C)O)C(=O)N1CCC[C@H]1C(=O)N[C@@H](CO)C(=O)N[C@@H](CO)C(=O)N[C@H](C(=O)N[C@@H](CC(N)=O)C(=O)N[C@H](C(=O)NCC(=O)N[C@@H](CCCNC(=N)N)C(=O)N[C@@H](CC(N)=O)C(=O)N[C@H](C(=O)N[C@@H](Cc1ccc(O)cc1)C(N)=O)[C@@H](C)O)C(C)C)[C@@H](C)O, also called compound 79) [N^ε1-[(4S)-4-carboxy-4-(19-carboxynonadecanoylamino)butanoyl]-[Arg17,Pro21,Pro27,Arg34]-h-amylin] | 36.4 | 46.1 |
| K([γGlu-C20 diacid])CNTATCATQRLAEFLRHSSPNFGAIPSSTNVGSRTY-NH2 (disulfide 2-7; N-terminus assumed; SMILES CC[C@H](C)[C@H](NC(=O)[C@H](C)NC(=O)CNC(=O)[C@H](Cc1ccccc1)NC(=O)[C@H](CC(N)=O)NC(=O)[C@@H]1CCCN1C(=O)[C@H](CO)NC(=O)[C@H](CO)NC(=O)[C@H](Cc1c[nH]cn1)NC(=O)[C@H](CCCNC(=N)N)NC(=O)[C@H](CC(C)C)NC(=O)[C@H](Cc1ccccc1)NC(=O)[C@H](CCC(=O)O)NC(=O)[C@H](C)NC(=O)[C@H](CC(C)C)NC(=O)[C@H](CCCNC(=N)N)NC(=O)[C@H](CCC(N)=O)NC(=O)[C@@H](NC(=O)[C@H](C)NC(=O)[C@@H]1CSSC[C@H](NC(=O)[C@@H](N)CCCCNC(=O)CC[C@H](NC(=O)CCCCCCCCCCCCCCCCCCC(=O)O)C(=O)O)C(=O)N[C@@H](CC(N)=O)C(=O)N[C@@H]([C@@H](C)O)C(=O)N[C@@H](C)C(=O)N[C@@H]([C@@H](C)O)C(=O)N1)[C@@H](C)O)C(=O)N1CCC[C@H]1C(=O)N[C@@H](CO)C(=O)N[C@@H](CO)C(=O)N[C@H](C(=O)N[C@@H](CC(N)=O)C(=O)N[C@H](C(=O)NCC(=O)N[C@@H](CO)C(=O)N[C@@H](CCCNC(=N)N)C(=O)N[C@H](C(=O)N[C@@H](Cc1ccc(O)cc1)C(N)=O)[C@@H](C)O)C(C)C)[C@@H](C)O, also called compound 51) | 31.1 | 37.5 |

The remaining binders from weak to strong by IC50 [1], led by results:

| IC50 [1] [nM] | Ratio hCT/hAmylin binding [2] | Binder |
| --- | --- | --- |
| 80.4 | 91.8 | K([γGlu-C20 diacid])CNTATCATQRLAHFLRHSSPNFGAIPSSTNVGRNTY-NH2 (disulfide 2-7; N-terminus assumed; SMILES CC[C@H](C)[C@H](NC(=O)[C@H](C)NC(=O)CNC(=O)[C@H](Cc1ccccc1)NC(=O)[C@H](CC(N)=O)NC(=O)[C@@H]1CCCN1C(=O)[C@H](CO)NC(=O)[C@H](CO)NC(=O)[C@H](Cc1c[nH]cn1)NC(=O)[C@H](CCCNC(=N)N)NC(=O)[C@H](CC(C)C)NC(=O)[C@H](Cc1ccccc1)NC(=O)[C@H](Cc1c[nH]cn1)NC(=O)[C@H](C)NC(=O)[C@H](CC(C)C)NC(=O)[C@H](CCCNC(=N)N)NC(=O)[C@H](CCC(N)=O)NC(=O)[C@@H](NC(=O)[C@H](C)NC(=O)[C@@H]1CSSC[C@H](NC(=O)[C@@H](N)CCCCNC(=O)CC[C@H](NC(=O)CCCCCCCCCCCCCCCCCCC(=O)O)C(=O)O)C(=O)N[C@@H](CC(N)=O)C(=O)N[C@@H]([C@@H](C)O)C(=O)N[C@@H](C)C(=O)N[C@@H]([C@@H](C)O)C(=O)N1)[C@@H](C)O)C(=O)N1CCC[C@H]1C(=O)N[C@@H](CO)C(=O)N[C@@H](CO)C(=O)N[C@H](C(=O)N[C@@H](CC(N)=O)C(=O)N[C@H](C(=O)NCC(=O)N[C@@H](CCCNC(=N)N)C(=O)N[C@@H](CC(N)=O)C(=O)N[C@H](C(=O)N[C@@H](Cc1ccc(O)cc1)C(N)=O)[C@@H](C)O)C(C)C)[C@@H](C)O, also called compound 85) |
| 50.7 | 118 | K([γGlu-C20 diacid])CNTATCATQRLANFLRHSSPNFGAIPSSTNVGHNTY-NH2 (disulfide 2-7; N-terminus assumed; SMILES CC[C@H](C)[C@H](NC(=O)[C@H](C)NC(=O)CNC(=O)[C@H](Cc1ccccc1)NC(=O)[C@H](CC(N)=O)NC(=O)[C@@H]1CCCN1C(=O)[C@H](CO)NC(=O)[C@H](CO)NC(=O)[C@H](Cc1c[nH]cn1)NC(=O)[C@H](CCCNC(=N)N)NC(=O)[C@H](CC(C)C)NC(=O)[C@H](Cc1ccccc1)NC(=O)[C@H](CC(N)=O)NC(=O)[C@H](C)NC(=O)[C@H](CC(C)C)NC(=O)[C@H](CCCNC(=N)N)NC(=O)[C@H](CCC(N)=O)NC(=O)[C@@H](NC(=O)[C@H](C)NC(=O)[C@@H]1CSSC[C@H](NC(=O)[C@@H](N)CCCCNC(=O)CC[C@H](NC(=O)CCCCCCCCCCCCCCCCCCC(=O)O)C(=O)O)C(=O)N[C@@H](CC(N)=O)C(=O)N[C@@H]([C@@H](C)O)C(=O)N[C@@H](C)C(=O)N[C@@H]([C@@H](C)O)C(=O)N1)[C@@H](C)O)C(=O)N1CCC[C@H]1C(=O)N[C@@H](CO)C(=O)N[C@@H](CO)C(=O)N[C@H](C(=O)N[C@@H](CC(N)=O)C(=O)N[C@H](C(=O)NCC(=O)N[C@@H](Cc1c[nH]cn1)C(=O)N[C@@H](CC(N)=O)C(=O)N[C@H](C(=O)N[C@@H](Cc1ccc(O)cc1)C(N)=O)[C@@H](C)O)C(C)C)[C@@H](C)O, also called compound 77) [N^ε1-[(4S)-4-carboxy-4-(19-carboxynonadecanoylamino)butanoyl]-[Arg17,Pro21,Pro27,His34]-h-amylin] |
| 31.4 | 45.2 | K([γGlu-C20 diacid])CNTATCATQRLANFLRHSSPNFGAIPSSTNVGSHTY-NH2 (disulfide 2-7; N-terminus assumed; SMILES CC[C@H](C)[C@H](NC(=O)[C@H](C)NC(=O)CNC(=O)[C@H](Cc1ccccc1)NC(=O)[C@H](CC(N)=O)NC(=O)[C@@H]1CCCN1C(=O)[C@H](CO)NC(=O)[C@H](CO)NC(=O)[C@H](Cc1c[nH]cn1)NC(=O)[C@H](CCCNC(=N)N)NC(=O)[C@H](CC(C)C)NC(=O)[C@H](Cc1ccccc1)NC(=O)[C@H](CC(N)=O)NC(=O)[C@H](C)NC(=O)[C@H](CC(C)C)NC(=O)[C@H](CCCNC(=N)N)NC(=O)[C@H](CCC(N)=O)NC(=O)[C@@H](NC(=O)[C@H](C)NC(=O)[C@@H]1CSSC[C@H](NC(=O)[C@@H](N)CCCCNC(=O)CC[C@H](NC(=O)CCCCCCCCCCCCCCCCCCC(=O)O)C(=O)O)C(=O)N[C@@H](CC(N)=O)C(=O)N[C@@H]([C@@H](C)O)C(=O)N[C@@H](C)C(=O)N[C@@H]([C@@H](C)O)C(=O)N1)[C@@H](C)O)C(=O)N1CCC[C@H]1C(=O)N[C@@H](CO)C(=O)N[C@@H](CO)C(=O)N[C@H](C(=O)N[C@@H](CC(N)=O)C(=O)N[C@H](C(=O)NCC(=O)N[C@@H](CO)C(=O)N[C@@H](Cc1c[nH]cn1)C(=O)N[C@H](C(=O)N[C@@H](Cc1ccc(O)cc1)C(N)=O)[C@@H](C)O)C(C)C)[C@@H](C)O, also called compound 60) [N^ε1-[(4S)-4-carboxy-4-(19-carboxynonadecanoylamino)butanoyl]-[Arg17,Pro21,Pro27,His35]-h-amylin] |
